Source: patent publication US20110027794

What was measured:
[1] = tested on: unnamed basic selection target protein (pI 9, 9 kDa); assay: SELEX; conditions: 2'-F at all nucleotides; 0.89% bound with protein vs 0.48% without after 4 rounds; 20 mM Tris pH 7.4, 150 mM NaCl, 4 mM KCl, 1 mM MgCl2, 1 mM CaCl2, 0.1% Tween-20, 37 C
DNase I = DNase I (UniProt P00639); assay: cleavage_in_vitro; conditions: 2'-F at all nucleotides; 100 mM NaOAc, 5 mM MgCl2, 37 C, 5 min
Sequence of DNase I (P00639 23-282): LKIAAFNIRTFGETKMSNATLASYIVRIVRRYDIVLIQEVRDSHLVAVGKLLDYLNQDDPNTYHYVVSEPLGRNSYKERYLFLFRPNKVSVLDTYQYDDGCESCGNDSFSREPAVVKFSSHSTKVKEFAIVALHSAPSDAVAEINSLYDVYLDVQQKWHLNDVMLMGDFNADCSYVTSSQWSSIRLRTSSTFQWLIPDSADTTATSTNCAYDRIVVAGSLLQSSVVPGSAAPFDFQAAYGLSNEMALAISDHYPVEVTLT

Row | Sequence | binding signal (fold over no-protein control) [1] | binding signal (fold more stable than DNA) (DNase I)
1 | GTGGAACCGACAGTGGTACGTGNNNNNNNNNNNNNNNNNNNNNNNNNNNNNNNNNNNNNNNNCACGAGTGAAGTCTGAGCTCC [BSA-1C FNA pool, selection round 4] | 1.85 | –
2 | NNNNNNNNNNNNNNNNNNNNNNNNNNNNNNNNNNNNNNNNCACGAGTGAAGTCTGAGCTCC | – | > 100
